Data on 96 substances can be found in the supplement of paper PMC12042874.

± gives the uncertainty stated by the source.

A short description of this series: amyloid nucleation score (Sup35N fusion, yeast selection) (log enrichment); library NNK3; higher = more nucleation; inactive = no reads after selection. The gist of the method:
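Three technical output replicates were used for random libraries. Psi-negative yeast expressing peptides of 20 random codons fused to Sup35N were induced with 100 μM copper sulfate for 24 hours and grown 7 days at 30°C on medium lacking adenine and uracil, and input and output plasmid inserts were Illumina-sequenced, excluding sequences with under 100 input reads. The nucleation score is the DiMSum log enrichment of output over input reads, centred on the mode score of non-aggregating sequences.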
Turning to MTLWDWDYRLIVRIQLRSTQ, the amyloid nucleation score entry was “inactive”.

Turning to MTSFIFDVFCSCSCLYQRPL, the amyloid nucleation score entry was “inactive”.

Turning to MTSFVWSCWRHYYRSRIVVV, the amyloid nucleation score result is “inactive”.

MTSMLVTMMPCWVMRFVVWE: the amyloid nucleation score entry was “inactive”.

In the case of MVFLVVVWFVKNGWKCVYGS, the amyloid nucleation score entry is “inactive”.

Take MVFQYRYFSLLLVWSNCSGA: the amyloid nucleation score entry was “inactive”.

As for MVGWVWERMRHAPWE, the amyloid nucleation score result was “inactive”.

For the substance MVHPDTRKRQTRGTG, the amyloid nucleation score entry is “inactive”.

Take MVKTFVLMTLHLGLMVRFLF: the amyloid nucleation score entry is “inactive”.

For MVLNERFFYTSTTGVICVTC, the amyloid nucleation score turned out to be 1.73 ± 0.064.

Regarding MVNTM, the amyloid nucleation score entry is “inactive”.

In the case of MVREFTQNSKVCSTVLCDGV, the amyloid nucleation score result was “inactive”.

As for MVWKHYTSLNRDCVFNICCW, the amyloid nucleation score worked out at 1.78 ± 0.063.

MWEKFQWCNIINGINSVCVV gave an amyloid nucleation score of 0.962 ± 0.16.

Take MWLKPCRGKIKMRGYFSLNG: the amyloid nucleation score entry was “inactive”.

MWSVLIRSTIDYAVPNWSRF: the amyloid nucleation score entry was “inactive”.

With MWWGWKRFHSMRNYDAYIQM, the amyloid nucleation score result is “inactive”.

Take MYKFCSY: the amyloid nucleation score entry was “inactive”.

Take MYNSTLSWRL: the amyloid nucleation score result is “inactive”.

Turning to MYPLTVWIVLRLGDSFLK, the amyloid nucleation score entry was “inactive”.

For MYQLLMFAYVT, the amyloid nucleation score result is “inactive”.

Substance MYQVDMMLCTITDWVGSNWY gave an amyloid nucleation score of 0.666 ± 0.27.

MYREFYLNDQFNRPFPQSMD: the amyloid nucleation score entry was “inactive”.

Consider MYRITQGHLR, for which the amyloid nucleation score result is “inactive”.

With MYSMVGNLTRSWEGIGLGLM, the amyloid nucleation score result was “inactive”.

Take MYTTDYVYRVLVSHFRVPRM: the amyloid nucleation score result is “inactive”.

Consider NAFICGSRYQVVKDSDDHCM, for which the amyloid nucleation score entry was “inactive”.

Turning to NAGYCVRTRSLGESLSIVRK, the amyloid nucleation score entry was “inactive”.

Consider NALLAFPYQGSMHKCGLGRY, for which the amyloid nucleation score entry is “inactive”.

For the substance NASCGDNVLLYLFKMTFCLG, the amyloid nucleation score worked out at 0.139 ± 0.25.

NCHSFVYYSMLGVSLSISGN showed an amyloid nucleation score of 2.29 ± 0.059.

NCRLEESGLVTVNCVGYWWD: the amyloid nucleation score entry is “inactive”.

NCVYVLESD: the amyloid nucleation score is -0.075 ± 0.32.

For the substance NCYRRTLHSSWREWIWPIGC, the amyloid nucleation score is -0.062 ± 0.82.

NDFLDVGSVSSYVNTQLPMS returned an amyloid nucleation score of -0.086 ± 0.8.

Regarding NDVPLDRQLVDGYIASARFG, the amyloid nucleation score entry is “inactive”.

NEIQVKQRYVPPVSVSFVWW showed an amyloid nucleation score of 1.59 ± 0.086.

As for NELCLVMIKKDVSMRVWLES, the amyloid nucleation score result is “inactive”.

As for NELCVTFLGCRPYVPA, the amyloid nucleation score was -0.469 ± 1.1.

In the case of NEMHFLS, the amyloid nucleation score entry is “inactive”.

On to NEMQQYSHAPSPSVVWNAGF, for which the amyloid nucleation score result is “inactive”.

For the substance NESHILPVVVMDCLRTFPTE, the amyloid nucleation score result was “inactive”.

For the substance NESLIKVCSALILRKNMCGP, the amyloid nucleation score result is “inactive”.

Take NFATRDNWYRVTQTLEDWIK: the amyloid nucleation score result was “inactive”.

For NFHQMW, the amyloid nucleation score entry is “inactive”.

Turning to NFIALSLFKLVCSAEICWLN, the amyloid nucleation score amounted to 0.617 ± 0.39.

For the substance NFLVVSNRYLYMVPNGHIKL, the amyloid nucleation score came to 2.96 ± 0.051.

NFRCDICLPNLTRY yielded an amyloid nucleation score of 0.313 ± 0.16.

NFSETSAKYHVTSRGFSSSR displayed an amyloid nucleation score of 0.456 ± 0.21.

The substance NFVDVRIKFTLTADLGHNSG had an amyloid nucleation score of 0.756 ± 0.21.

Take NFVGTICLCLSYYVSVNSCC: the amyloid nucleation score result was “inactive”.

In the case of NGFLNSINGTVMVQGYSTAF, the amyloid nucleation score result was “inactive”.

On to NGFSTVTSSPGLCFLYRMFI, for which the amyloid nucleation score entry is “inactive”.

On to NGIMLQIRNPSSKLNNLLWF, for which the amyloid nucleation score entry is “inactive”.

Take NGLPVLLEEDLS: the amyloid nucleation score result was “inactive”.

Consider NGSIILICLVYVGLRCLWFL, for which the amyloid nucleation score result is “inactive”.

For the substance NGWRCLTVWDLSLYHWGYFL, the amyloid nucleation score result is “inactive”.

On to NHESVVWDMNGHPSPVGRGE, for which the amyloid nucleation score result was “inactive”.

As for NHGNSDEKTFPTMEN, the amyloid nucleation score result was “inactive”.

As for NICMAI, the amyloid nucleation score result was “inactive”.

For the substance NIFNCDRGSFFLLYRGIGFY, the amyloid nucleation score result is “inactive”.

Substance NIIYYTTVGHVHSVW gave an amyloid nucleation score of 1.04 ± 0.18.

Take NIKFIEHLLSYSSTPQPLTC: the amyloid nucleation score result was “inactive”.

NILKKLNVRNHFLVLMKKHM: the amyloid nucleation score entry is “inactive”.

As to NILRTRSRF, the amyloid nucleation score entry is “inactive”.

Substance NISFFTHLVSYRPTVRSSD came in with an amyloid nucleation score of 1.24 ± 0.14.

For NIWLP, the amyloid nucleation score entry is “inactive”.

On to NKDFGFSYIRTFPRILKVW, for which the amyloid nucleation score result is “inactive”.

For the substance NKFFDI, the amyloid nucleation score entry is “inactive”.

Regarding NKFKHESNTNYIPSRQYKVW, the amyloid nucleation score entry was “inactive”.

As to NKMDSKYPGRLCLMWGW, the amyloid nucleation score amounted to 0.48 ± 0.19.

Take NKPGVV: the amyloid nucleation score result was “inactive”.

For the substance NKSLKLMYFSRDYFKDSRLN, the amyloid nucleation score result is “inactive”.

For NKVPVGG, the amyloid nucleation score result was “inactive”.

With NKVSWIFNDSKGQGSV, the amyloid nucleation score was -0.291 ± 1.3.

Substance NLASCFVSIVEGSHFVYC came in with an amyloid nucleation score of 1.9 ± 0.1.

As to NLDIWNLRQWSGVVYLV, the amyloid nucleation score was 0.751 ± 0.14.

Consider NLFSRLRYSLSAFQIWRLSV, for which the amyloid nucleation score result is “inactive”.

As to NLGLLKAVYCVG, the amyloid nucleation score entry was “inactive”.

Regarding NLINTVKYLNFDGLTAFSSQ, the amyloid nucleation score result is “inactive”.

For the substance NLKNYVFWREILSYVSDPWD, the amyloid nucleation score entry is “inactive”.

As for NLLSDSVDMYINAGVDILLA, the amyloid nucleation score entry was “inactive”.

In the case of NLNKNRLLMTMHWNRVFLMS, the amyloid nucleation score result is “inactive”.

As for NLNYRLADSCLNSVLDRLGQ, the amyloid nucleation score result was “inactive”.

In the case of NLSNIFQSNMYVTRSVNGVR, the amyloid nucleation score amounted to 1.68 ± 0.084.

With NLSVAMRLICVTLFLVLLGI, the amyloid nucleation score entry was “inactive”.

Take NLSWVLAILCCGL: the amyloid nucleation score worked out at 1.39 ± 0.15.

NLTQFYWSCGEVRVTAFYGA returned an amyloid nucleation score of 2.08 ± 0.079.

The substance NLTYNTSYAVVDVLRITCNF displayed an amyloid nucleation score of 2.56 ± 0.065.

Substance NLVSNMVSNAKVDVVVWHVQ yielded an amyloid nucleation score of 0.209 ± 0.54.

With NLWTTGIRTSPKNLYIVAFM, the amyloid nucleation score entry was “inactive”.

For NLWVEGRKAQENMDPDARSR, the amyloid nucleation score entry was “inactive”.

With NMALLEYDSMSFICRYRNRP, the amyloid nucleation score entry was “inactive”.

In the case of NMNSISYSQPIFRSRTRRRM, the amyloid nucleation score result is “inactive”.

Turning to NMTHLFMVCAKVSMPSGDGG, the amyloid nucleation score entry was “inactive”.

As to NMYWSISDRFRIV, the amyloid nucleation score stood at 0.424 ± 0.71.
